According to patent US20240117038A1 (Ablynx, published 2024):

Columns and labels:
human CX3CR1 [1] = target: T1, human CX3CR1 (human, UniProt P49238 1-355); assay: flow cytometry on transiently transfected HEK293T cells, human CX3CR1 WT
T1 construct: Overexpressed on CHO K1, Ba/F3 or HEK293T cells; also called huCX3CR1; hCX3CR1
T1 sequence: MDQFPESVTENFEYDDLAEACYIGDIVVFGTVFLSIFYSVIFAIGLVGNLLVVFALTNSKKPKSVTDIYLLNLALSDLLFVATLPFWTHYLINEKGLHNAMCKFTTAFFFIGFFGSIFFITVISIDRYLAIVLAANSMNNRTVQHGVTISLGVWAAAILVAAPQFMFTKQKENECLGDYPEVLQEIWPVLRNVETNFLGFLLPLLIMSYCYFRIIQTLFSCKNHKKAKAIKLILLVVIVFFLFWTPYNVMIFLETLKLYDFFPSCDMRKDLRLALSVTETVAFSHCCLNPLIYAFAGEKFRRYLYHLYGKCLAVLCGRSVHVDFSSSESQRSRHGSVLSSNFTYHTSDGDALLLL
Description: (§1) After washing, serial dilutions of multivalent ISVD construct (starting from 250 nM, 3-fold dilution, 11 points, diluted in assay buffer), were added and incubated for 4 hours at 4° C. Binding was performed in the presence of 30 uM HSA (Sigma-Aldrich, Cat. No. A8763). Plates were then washed 3 times and cells were incubated with an anti-VHH mouse antibody (3300-fold diluted in assay buffer) for 30 minutes at 4′° C. […] Plates were finally washed 3 times and cells were resuspended in PI (Miltenyi Biotec, Cat. No. 130-093-233, 1000-fold diluted in assay buffer). Cell suspensions were analyzed with iQue Screener PLUS (Intellicyt). EC50s were estimated by dose response modelling. Curves were fit using 4 parameter logistic regression in GraphPad (GraphPad Software Inc.). A purified anti-human CX3CR1 antibody [K0124E1] (BioLegend, Cat. No. 355701/355702) was used as positive control to detect CX3CR1 expression on the cell surface.
(§2) Two important SNPs are described in huCX3CR1, i.e. V2491 (Rs3732379) and T280M (Rs3732378), which might influence receptor activity and binding by the ISVD. […] Different combinations of these SNPs were introduced in human CX3CR1, and binding by 5 selected multivalent ISVD constructs was assessed with flow cytometry after transient transfection of the huCX3CR1 variants in HEK293T cells.
(§3) In short, the CX3CR1 constructs were cloned into pcDNA3.1 (ThermoFisher Scientific, Cat. No. V79020) and plasmid DNA was prepared from Escherichia coli TOP10 cells. HEK293T cells were seeded at a concentration of 1.5E06 cells per T75 flask and incubated overnight at 37° C. in DMEM medium (Gibco, Cat. No. 31966) supplemented with 10% FBS (Sigma. Cat. No. F7524). The medium was then replaced by Opti-MEM medium (Gibco, Cat. No. 31985). A mixture of 9 μg plasmid DNA, 27 μL Fugene 6 (Promega, Cat. No. E2691) in a final volume of 1 mL Opti-MEM was incubated for 15 minutes at room temperature and then added to the cells. After 3 hours incubation at 37° C., 10 mL of DMEM supplemented with 20% FBS was added, and incubation continued.

human CX3CR1 [2] = target: T1, human CX3CR1; assay: cell-based or functional assay
human CX3CR1 [3] = target: T1, human CX3CR1; assay: competition flow cytometry vs soluble huCX3CL1-AF647 on CHO K1 huCX3CR1 cells, 30 uM HSA
human CX3CR1 V249I = target: T2, human CX3CR1 V249I (human, UniProt P49238 1-355); assay: flow cytometry on transiently transfected HEK293T cells, human CX3CR1 V249I
T2 construct: Transiently transfected in HEK293T cells (pcDNA3.1); also called huCX3CR1 variant V249I (Rs3732379); printed V2491 in the text
T2 sequence: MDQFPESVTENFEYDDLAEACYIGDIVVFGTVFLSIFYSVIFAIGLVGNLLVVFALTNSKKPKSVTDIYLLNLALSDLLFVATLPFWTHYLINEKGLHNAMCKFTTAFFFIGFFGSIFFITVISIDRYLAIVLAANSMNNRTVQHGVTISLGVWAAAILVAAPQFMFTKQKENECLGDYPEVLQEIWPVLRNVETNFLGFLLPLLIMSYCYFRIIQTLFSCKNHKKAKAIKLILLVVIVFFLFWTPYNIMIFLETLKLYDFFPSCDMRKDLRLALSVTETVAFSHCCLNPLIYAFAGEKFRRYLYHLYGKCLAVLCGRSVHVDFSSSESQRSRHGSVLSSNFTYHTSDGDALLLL
Description: as §1, §2, §3

human CX3CR1 V249I/T280M = target: T3, human CX3CR1 V249I/T280M (human, UniProt P49238 1-355); assay: flow cytometry on HEK293T cells transiently transfected with human CX3CR1 V249I + T280M; detection with anti-VHH mouse antibody and goat anti-mouse Fc APC, as in Example 5.1
T3 construct: Transiently transfected in HEK293T cells (pcDNA3.1); also called huCX3CR1 variant V249I and T280M
T3 chain: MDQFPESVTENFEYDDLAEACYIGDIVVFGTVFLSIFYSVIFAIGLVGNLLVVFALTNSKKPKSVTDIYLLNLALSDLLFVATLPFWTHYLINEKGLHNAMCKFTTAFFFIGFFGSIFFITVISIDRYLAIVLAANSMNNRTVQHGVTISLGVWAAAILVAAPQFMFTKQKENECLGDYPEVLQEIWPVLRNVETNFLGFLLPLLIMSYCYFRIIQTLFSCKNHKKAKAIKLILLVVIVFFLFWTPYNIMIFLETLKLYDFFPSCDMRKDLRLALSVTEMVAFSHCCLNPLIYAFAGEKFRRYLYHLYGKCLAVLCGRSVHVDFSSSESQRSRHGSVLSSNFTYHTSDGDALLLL
Description: as §1, with “Plates” for “After washing, serial dilutions of multivalent ISVD construct (starting from 250 nM, 3-fold dilution, 11 points, diluted in assay buffer), were added and incubated for 4 hours at 4° C. Binding was performed in the presence of 30 uM HSA (Sigma-Aldrich, Cat. No. A8763). Plates”
as §2
In short, the CX3CR1 constructs were cloned into pcDNA3.1 (ThermoFisher Scientific, Cat. No. V79020) and plasmid DNA was prepared from Escherichia coli TOP10 cells. […]

| Binder | EC50 (human CX3CR1 [1]) [nM] | fold inhibition of monocyte migration (A041600035 VS IRR VHH), healthy, CD16+ monocytes (human CX3CR1 [2]) [fold] | fold inhibition of monocyte migration (A041600035 VS IRR VHH), healthy, CD16- monocytes (human CX3CR1 [2]) [fold] | fold inhibition of monocyte migration (A041600035 VS IRR VHH), healthy, total monocytes (human CX3CR1 [2]) [fold] | fold inhibition of monocyte migration (A041600035 VS IRR VHH), lupus nephritis, CD16+ monocytes (human CX3CR1 [2]) [fold] | fold inhibition of monocyte migration (A041600035 VS IRR VHH), lupus nephritis, CD16- monocytes (human CX3CR1 [2]) [fold] | fold inhibition of monocyte migration (A041600035 VS IRR VHH), lupus nephritis, total monocytes (human CX3CR1 [2]) [fold] | % inhibition (human CX3CR1 [3]) [%] | IC50 (human CX3CR1 [3]) [nM] | EC50 (human CX3CR1 V249I) [nM] | binding result (human CX3CR1 V249I/T280M) |
| --- | --- | --- | --- | --- | --- | --- | --- | --- | --- | --- | --- |
| A041600035 (VHH, Trivalent ISVD construct (two anti-CX3CR1 ISVDs, one anti-albumin ISVD), C-terminal alanine included in the entry; also called 54A12_SO (E1D)-9GS-54A12_SO-9GS-ALB23002-A) DVQLVESGGGSVQPGGSLRLSCAASGSIFSSTAMAWYRQAPGKQRDLVAVISTVGITKYADSVKGRFTISRDNAKNTVYLQMNSLRPEDTALYYCTSDARRGWDTRYWGQGTLVTVSSGGGGSGGGSEVQLVESGGGSVQPGGSLRLSCAASGSIFSSTAMAWYRQAPGKQRDLVAVISTVGITKYADSVKGRFTISRDNAKNTVYLQMNSLRPEDTALYYCTSDARRGWDTRYWGQGTLVTVSSGGGGSGGGSEVQLVESGGGVVQPGGSLRLSCAASGFTFRSFGMSWVRQAPGKGPEWVSSISGSGSDTLYADSVKGRFTISRDNSKNTLYLQMNSLRPEDTALYYCTIGGSLSRSSQGTLVTVSSA | 0.13 | 2.34 | 1.5 | 1.82 | 1.9 | 1.71 | 1.71 | 99 | 2.5 | 0.25 | – |
| A041600041 (VHH, Trivalent ISVD construct (two anti-CX3CR1 ISVDs, one anti-albumin ISVD), C-terminal alanine included in the entry; also called 54A12_SO (E1D)-9GS-66B02_SO-9GS-ALB23002-A) DVQLVESGGGSVQPGGSLRLSCAASGSIFSSTAMAWYRQAPGKQRDLVAVISTVGITKYADSVKGRFTISRDNAKNTVYLQMNSLRPEDTALYYCTSDARRGWDTRYWGQGTLVTVSSGGGGSGGGSEVQLVESGGGSVQPGGSLRLSCAASGSIFSSTAMAWYRQAPGKRRDLVAAINTVGVTKYADSVKGRFTISRDNAKNTVYLQMNSLRPEDTALYYCTSDPRRGWDTRYWGQGTLVTVSSGGGGSGGGSEVQLVESGGGVVQPGGSLRLSCAASGFTFRSFGMSWVRQAPGKGPEWVSSISGSGSDTLYADSVKGRFTISRDNSKNTLYLQMNSLRPEDTALYYCTIGGSLSRSSQGTLVTVSSA | 0.16 | – | – | – | – | – | – | 97 | 2.7 | 0.089 | binds |
| A041600085 (VHH, also called 307-9GS-ALB23002-9GS-307 (D1E)-A) DVQLVESGGGLVQPGGSLRLSCAASGSIFSSTAMAWYRQAPGKRRDLVAAISTVGVTKYADSVKGRFTISRDNSKNTVYLQMNSLRPEDTAVYYCTSDPRRGWDTRYWGQGTLVTVSSGGGGSGGGSEVQLVESGGGVVQPGGSLRLSCAASGFTFRSFGMSWVRQAPGKGPEWVSSISGSGSDTLYADSVKGRFTISRDNSKNTLYLQMNSLRPEDTALYYCTIGGSLSRSSQGTLVTVSSGGGGSGGGSEVQLVESGGGLVQPGGSLRLSCAASGSIFSSTAMAWYRQAPGKRRDLVAAISTVGVTKYADSVKGRFTISRDNSKNTVYLQMNSLRPEDTAVYYCTSDPRRGWDTRYWGQGTLVTVSSA | 0.12 | – | – | – | – | – | – | 103 | 7.7 | 0.057 | binds |

The next binders have a lower EC50 (human CX3CR1 [1]) than those just listed; values first:

| EC50 (human CX3CR1 [1]) [nM] | fold inhibition of monocyte migration (A041600035 VS IRR VHH), healthy, CD16+ monocytes (human CX3CR1 [2]) [fold] | fold inhibition of monocyte migration (A041600035 VS IRR VHH), healthy, CD16- monocytes (human CX3CR1 [2]) [fold] | fold inhibition of monocyte migration (A041600035 VS IRR VHH), healthy, total monocytes (human CX3CR1 [2]) [fold] | fold inhibition of monocyte migration (A041600035 VS IRR VHH), lupus nephritis, CD16+ monocytes (human CX3CR1 [2]) [fold] | fold inhibition of monocyte migration (A041600035 VS IRR VHH), lupus nephritis, CD16- monocytes (human CX3CR1 [2]) [fold] | fold inhibition of monocyte migration (A041600035 VS IRR VHH), lupus nephritis, total monocytes (human CX3CR1 [2]) [fold] | % inhibition (human CX3CR1 [3]) [%] | IC50 (human CX3CR1 [3]) [nM] | EC50 (human CX3CR1 V249I) [nM] | binding result (human CX3CR1 V249I/T280M) | Binder |
| --- | --- | --- | --- | --- | --- | --- | --- | --- | --- | --- | --- |
| 0.065 | – | – | – | – | – | – | 98 | 3.8 | – | – | A041600025 (VHH, Trivalent ISVD construct (two anti-CX3CR1 ISVDs, one anti-albumin ISVD), C-terminal alanine included in the entry; also called 54A12_SO (E1D)-9GS-ALB23002-9GS-54A12_SO-A) DVQLVESGGGSVQPGGSLRLSCAASGSIFSSTAMAWYRQAPGKQRDLVAVISTVGITKYADSVKGRFTISRDNAKNTVYLQMNSLRPEDTALYYCTSDARRGWDTRYWGQGTLVTVSSGGGGSGGGSEVQLVESGGGVVQPGGSLRLSCAASGFTFRSFGMSWVRQAPGKGPEWVSSISGSGSDTLYADSVKGRFTISRDNSKNTLYLQMNSLRPEDTALYYCTIGGSLSRSSQGTLVTVSSGGGGSGGGSEVQLVESGGGSVQPGGSLRLSCAASGSIFSSTAMAWYRQAPGKQRDLVAVISTVGITKYADSVKGRFTISRDNAKNTVYLQMNSLRPEDTALYYCTSDARRGWDTRYWGQGTLVTVSSA |
| 0.1 | – | – | – | – | – | – | 95 | 4.5 | 0.045 | – | A041600034 (VHH, Trivalent ISVD construct; also called 54A12_SO (E1D)-9GS-ALB23002-9GS-66B02_SO-A) DVQLVESGGGSVQPGGSLRLSCAASGSIFSSTAMAWYRQAPGKQRDLVAVISTVGITKYADSVKGRFTISRDNAKNTVYLQMNSLRPEDTALYYCTSDARRGWDTRYWGQGTLVTVSSGGGGSGGGSEVQLVESGGGVVQPGGSLRLSCAASGFTFRSFGMSWVRQAPGKGPEWVSSISGSGSDTLYADSVKGRFTISRDNSKNTLYLQMNSLRPEDTALYYCTIGGSLSRSSQGTLVTVSSGGGGSGGGSEVQLVESGGGSVQPGGSLRLSCAASGSIFSSTAMAWYRQAPGKRRDLVAAINTVGVTKYADSVKGRFTISRDNAKNTVYLQMNSLRPEDTALYYCTSDPRRGWDTRYWGQGTLVTVSSA |
